Reference: publication PMC8349882 (Molecular cell, 2021)

Biological target: the molecule itself
Assay: crystal structure

B1: GLR3.4-S1S2 (isolated ligand-binding domain of GLR3.4) (domain or fragment, Arabidopsis thaliana)
chain: KPLRIGVPNRVSYTDYVSKDKNPPGVRGYCIDVFEAAIELLPYPVPRTYILYGDGKRNPSYDNLVNEVVADNFDVAVGDITIVTNRTRYVDFTQPFIESGLVVVAPVKEAGTIEGIDSLVTSNEPIGVQDGTFARNYLINELNILPSRIVPLKDEEQYLSALQRGPNAGGVAAIVDELPYIEVLLTNSNCKFRTVGQEFTRTGWGFAFQRDSPLAVDMSTAILQLSEEGELEKIHRKWLNYKHECS
- stoichiometry N: 2
